Measured values reported in patent US20260008815A1, “CYCLIC PEPTIDE OR SALT THEREOF, AND USES THEREOF” (FUJIFILM Corporation, priority 2023, published 2026).
Bridge positions count the residues as written; N and C are the ends. Ends that are not written are not given here. COCH2 = acetyl group that carries the bridge

Target: T1, Recombinant Human FGFR2 alpha (IIIc) Fc Chimera Protein, CF (R&D systems, 712-FR-050) (human, UniProt P21802 22-377)
T1 construct: bought; not shown: Fc part of the chimera
T1 sequence (P21802 22-377, change not shown): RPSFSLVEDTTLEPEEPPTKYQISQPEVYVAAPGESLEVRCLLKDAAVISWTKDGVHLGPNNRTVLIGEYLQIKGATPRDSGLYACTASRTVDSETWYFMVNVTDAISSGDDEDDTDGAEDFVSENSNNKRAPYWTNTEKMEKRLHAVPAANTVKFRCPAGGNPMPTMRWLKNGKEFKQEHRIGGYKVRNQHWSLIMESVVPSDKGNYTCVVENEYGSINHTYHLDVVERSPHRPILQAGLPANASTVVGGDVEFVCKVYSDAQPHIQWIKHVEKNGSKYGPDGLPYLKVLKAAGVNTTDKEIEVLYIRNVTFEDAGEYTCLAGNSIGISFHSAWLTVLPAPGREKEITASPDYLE
Experiment: ELISA on plate-bound FGFR2-Fc
In short: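 Plate-immobilized FGFR2 alpha (IIIc)-Fc (5 ng/well) incubated with peptide 3 h at room temperature, then anti-Myc antibody 2 h and chemiluminescent ELISA substrate. Signal corrected by subtracting FGFR-free wells; binding affinity scored into categories from the dose-response.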

Binder	ELISA luminescence signal at 10 nmol/L peptide, relative to SEQ ID NO: 47 (=1)
KCQNFINPVQWRYFQHYKN (not fully specified; thioether ring (C)-(K(acetyl))) [cyclic peptide SEQ ID NO: 68]	≥ 0.7 ratio
QCQFLNYVNHVQWHYFWVFK(COCH2)S (thioether 2-20) [cyclic peptide SEQ ID NO: 401]	0.1 to 0.5 ratio
QCQLYYLYQYAYALK(COCH2)V (thioether 2-15) [cyclic peptide SEQ ID NO: 383]	0.1 to 0.5 ratio
QCPRQLYYLYLYLSK(COCH2)I (thioether 2-15) [cyclic peptide SEQ ID NO: 378]	0.1 to 0.5 ratio
QCEQLKYLYQYVLKL (not fully specified; thioether ring (C)-(K(acetyl))) [cyclic peptide SEQ ID NO: 372]	0.1 to 0.5 ratio
QCLTQRVYLRQLAYYRLYRK(COCH2)I (thioether 2-20 (inferred)) [cyclic peptide SEQ ID NO: 405]	0.1 to 0.5 ratio
LCYLYQYLYQAK(COCH2)F (thioether 2-12) [cyclic peptide SEQ ID NO: 365]	0.1 to 0.5 ratio
WCQESSNYLAPLQWYFFNWYK(COCH2)T (thioether 2-21 (inferred)) [cyclic peptide SEQ ID NO: 410]	≥ 0.7 ratio
DCIRPYDQLQLIYQYLYQLK(COCH2)K (thioether 2-20; not fully specified; printed as D-(C)-IRPYDQLQLIYQYLYQL-(K(acetyl))-K) [cyclic peptide SEQ ID NO: 404]	0.1 to 0.5 ratio
LCYLYQYLYTTK(COCH2)Y (thioether 2-12) [cyclic peptide SEQ ID NO: 362]	0.1 to 0.5 ratio
VCQEYYLYQYVYELK(COCH2)Y (thioether 2-15) [cyclic peptide SEQ ID NO: 381]	0.1 to 0.5 ratio
VCQQDNYFYPQQWFFFVHYK(COCH2)H (thioether 2-20) [cyclic peptide SEQ ID NO: 400]	≥ 0.7 ratio
DCQQYYLYLYLWK(COCH2)I (thioether 2-13) [cyclic peptide SEQ ID NO: 366]	0.1 to 0.5 ratio
HCQLEYLYTYVLK(COCH2)I (thioether 2-13) [cyclic peptide SEQ ID NO: 367]	0.1 to 0.5 ratio
DCLQFLYLYLYQK(COCH2)T (thioether 2-13) [cyclic peptide SEQ ID NO: 369]	0.1 to 0.5 ratio
QCLIQDLYAYIFK(COCH2)L (thioether 2-13) [cyclic peptide SEQ ID NO: 368]	0.1 to 0.5 ratio
LCVQGNYQNPTQWYYFQLYK(COCH2)W (thioether 2-20 (inferred)) [cyclic peptide SEQ ID NO: 407]	0.5 to 0.7 ratio
DCQLWYLYQYLIVK(COCH2)A (thioether 2-14) [cyclic peptide SEQ ID NO: 371]	0.1 to 0.5 ratio
QCDQDAIQWVYDLQYYRVWHK(COCH2)V (thioether 2-21 (inferred)) [cyclic peptide SEQ ID NO: 413]	0.1 to 0.5 ratio
DCLQFIYQYLYTVK(COCH2)I (thioether 2-14) [cyclic peptide SEQ ID NO: 375]	0.1 to 0.5 ratio
QCEYALQYYRFYVAQRHWVDK(COCH2)L (thioether 2-21 (inferred)) [cyclic peptide SEQ ID NO: 412]	0.1 to 0.5 ratio
LCYLYQYIYTAK(COCH2)F (thioether 2-12) [cyclic peptide SEQ ID NO: 363]	0.1 to 0.5 ratio
KCPQNFINPVQWRYFQHYAKN (thioether ring (C)-(K(acetyl))) [cyclic peptide SEQ ID NO: 69]	0.1 to 0.5 ratio

Binder	ELISA luminescence signal at 10 nmol/L peptide, relative to SEQ ID NO: 47 (=1)
YCPPQLVYLYQYLYK(COCH2)L (thioether 2-15) [cyclic peptide SEQ ID NO: 380]	0.1 to 0.5 ratio
DCQLYYLYQYVLTK(COCH2)V (thioether 2-14) [cyclic peptide SEQ ID NO: 370]	0.1 to 0.5 ratio
PCEQQNFHSVIQWHFFAQYK(COCH2)N (thioether 2-20 (inferred)) [cyclic peptide SEQ ID NO: 406]	≥ 0.7 ratio
KCAPQNFINPVQWRYFQHYKN (thioether ring (C)-(K(acetyl))) [cyclic peptide SEQ ID NO: 70]	0.5 to 0.7 ratio
RCHHNFHHARQHGFFYHYK(COCH2)R (thioether 2-19) [cyclic peptide SEQ ID NO: 388]	0.1 to 0.5 ratio
RCHHNFHHARQHGFFWHYK(COCH2)R (thioether 2-19) [cyclic peptide SEQ ID NO: 389]	0.1 to 0.5 ratio
RCHHNFHHARQHRFFHHYK(COCH2)R (thioether 2-19) [cyclic peptide SEQ ID NO: 387]	0.1 to 0.5 ratio
RCHHNFHHARQWGFFHHYK(COCH2)R (thioether 2-19) [cyclic peptide SEQ ID NO: 386]	0.5 to 0.7 ratio
QCQLYYLYQYTIAIK(COCH2)T (thioether 2-15) [cyclic peptide SEQ ID NO: 384]	0.1 to 0.5 ratio
LCNNWENYFDWLQWSYYIAYK(COCH2)E (thioether 2-21 (inferred)) [cyclic peptide SEQ ID NO: 409]	≥ 0.7 ratio
PCEVYNYWYPTQWFFFTQFK(COCH2)K (thioether 2-20; not fully specified; printed as P-(C)-EVYNYWYPTQWFFFTQF-(K(acetyl))-K) [cyclic peptide SEQ ID NO: 402]	≥ 0.7 ratio
HCSQHQTTYYQIYAYLHAIK(COCH2)I (thioether 2-20 (inferred)) [cyclic peptide SEQ ID NO: 408]	0.1 to 0.5 ratio
QCLQDLYRYLYLLK(COCH2)A (thioether 2-14) [cyclic peptide SEQ ID NO: 374]	0.1 to 0.5 ratio
TCVDKDNWYNHVQWQYFFLYK(COCH2)Q (thioether 2-21) [cyclic peptide SEQ ID NO: 411]	≥ 0.7 ratio
QCIQDLYLYLYFLK(COCH2)T (thioether 2-14) [cyclic peptide SEQ ID NO: 376]	0.1 to 0.5 ratio
ACRRANWIHPIQWFFFHVYK(COCH2)H (thioether 2-20) [cyclic peptide SEQ ID NO: 403]	0.5 to 0.7 ratio
HCLHYLYQYLYTVK(COCH2)Y (thioether 2-14) [cyclic peptide SEQ ID NO: 377]	0.1 to 0.5 ratio
QCAYYHLYQYLHQLK(COCH2)V (thioether 2-15) [cyclic peptide SEQ ID NO: 385]	0.5 to 0.7 ratio
NCQLYYTYLYLHTLK(COCH2)F (thioether 2-15) [cyclic peptide SEQ ID NO: 379]	0.1 to 0.5 ratio
PCDRQLYYLYQYIHK(COCH2)T (thioether 2-15) [cyclic peptide SEQ ID NO: 382]	0.1 to 0.5 ratio
QCLQYLYQYLFK(COCH2)I (thioether 2-12) [cyclic peptide SEQ ID NO: 364]	0.1 to 0.5 ratio
QCYNYQYIYQYIYK(COCH2)I (thioether 2-14) [cyclic peptide SEQ ID NO: 373]	0.1 to 0.5 ratio
